Reference: PMC7841149

Target: integrin α5 on preosteoblastic MC3T3-E1 cells (mouse (endogenous in MC3T3-E1)) (UniProt P11688)
Chain of UniProt P11688 (P11688 45-1053): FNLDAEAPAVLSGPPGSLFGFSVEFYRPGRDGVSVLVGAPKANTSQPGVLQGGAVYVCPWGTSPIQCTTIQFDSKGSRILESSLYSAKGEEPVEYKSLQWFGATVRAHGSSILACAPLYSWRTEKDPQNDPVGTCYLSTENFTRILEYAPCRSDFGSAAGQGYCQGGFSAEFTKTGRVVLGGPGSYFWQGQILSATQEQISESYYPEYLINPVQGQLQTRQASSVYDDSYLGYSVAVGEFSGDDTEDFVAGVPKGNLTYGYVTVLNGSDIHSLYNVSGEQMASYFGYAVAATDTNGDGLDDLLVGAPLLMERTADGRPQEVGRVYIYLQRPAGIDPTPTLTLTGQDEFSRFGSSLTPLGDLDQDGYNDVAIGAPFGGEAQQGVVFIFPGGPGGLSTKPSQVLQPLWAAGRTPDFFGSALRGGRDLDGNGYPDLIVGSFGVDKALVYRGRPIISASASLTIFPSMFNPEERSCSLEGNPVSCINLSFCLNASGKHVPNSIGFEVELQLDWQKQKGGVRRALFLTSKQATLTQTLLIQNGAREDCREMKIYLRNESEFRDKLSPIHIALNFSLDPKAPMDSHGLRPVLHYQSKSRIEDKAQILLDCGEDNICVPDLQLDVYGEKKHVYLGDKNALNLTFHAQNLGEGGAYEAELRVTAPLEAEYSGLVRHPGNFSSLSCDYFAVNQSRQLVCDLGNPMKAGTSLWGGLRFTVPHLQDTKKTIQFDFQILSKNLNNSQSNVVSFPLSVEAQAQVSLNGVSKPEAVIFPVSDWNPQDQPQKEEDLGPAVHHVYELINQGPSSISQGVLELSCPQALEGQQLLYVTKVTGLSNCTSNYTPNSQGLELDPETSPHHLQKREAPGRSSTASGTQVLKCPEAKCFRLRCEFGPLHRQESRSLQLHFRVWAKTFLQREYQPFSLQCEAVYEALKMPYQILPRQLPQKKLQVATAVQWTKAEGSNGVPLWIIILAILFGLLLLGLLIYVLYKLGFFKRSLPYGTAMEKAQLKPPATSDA

connective tissue growth factor (CTGF), recombinant (from UniProt P29279 27-349) (ligand)
forward migration index (FMI) of MC3T3-E1 cells toward a gradient of 150 ng/ml CTGF with neutralizing integrin α5 antibody (5 μg/ml pretreatment, 15 μg/ml in the reservoir), 12 h: 0.02 | forward migration index (FMI) of MC3T3-E1 cells toward a gradient of 150 ng/ml CTGF, μ-slide chemotaxis chamber, 12 h, CTGF group without antibody: 0.5 | migration distance of MC3T3-E1 cells toward a gradient of 150 ng/ml CTGF with neutralizing integrin α5 antibody, 12 h: 129 μm | migration distance of MC3T3-E1 cells toward a gradient of 150 ng/ml CTGF, 12 h, CTGF group without antibody: 162 μm | velocity of MC3T3-E1 cells migrating toward a gradient of 150 ng/ml CTGF with neutralizing integrin α5 antibody, 12 h: 0.25 μm/min | velocity of MC3T3-E1 cells migrating toward a gradient of 150 ng/ml CTGF, 12 h, CTGF group without antibody: 0.32 μm/min
